For three substances, Kd, NK cell-mediated cytotoxicity (Cr-51 release) against MOLM-13 cells with NK cells from healthy donors, geometric mean EC50; NKp46 and CD16a coengaged and NK cell-mediated cytotoxicity (Cr-51 release) against MOLM-13 cells with NK cells from healthy donors, mean observed maximum specific lysis; NKp46 and CD16a coengaged results are on record in PMC10497414.

Assay [1] addresses cynomolgus CD32b (cynomolgus) (UniProt Q8SPW3). Briefly: SPR. In general terms: Surface plasmon resonance follows binding to a sensor surface in real time, without labels.
Assay [2] addresses human CD32a (human FcγRIIA) (human) (UniProt P12318). Briefly: SPR.
Assay [3] addresses cynomolgus FcRn (cynomolgus) (UniProt Q8SPV9). Briefly: SPR.
Assay [4] concerns the target human neonatal Fc receptor (human) (UniProt P55899). The experiment in a line: SPR. The settings on record: bispecific antibody.
The target of assay [5] is human CD16a (human FcγRIIIA), F isoform (human) (UniProt P08637). The experiment in a line: SPR.
Chain of human CD16a (human FcγRIIIA), F isoform (human) (P08637 17-208): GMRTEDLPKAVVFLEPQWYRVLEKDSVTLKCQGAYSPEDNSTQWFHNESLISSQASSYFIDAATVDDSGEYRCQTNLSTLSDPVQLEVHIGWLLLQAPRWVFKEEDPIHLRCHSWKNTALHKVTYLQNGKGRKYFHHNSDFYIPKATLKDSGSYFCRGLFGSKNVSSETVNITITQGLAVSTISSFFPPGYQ
Assay [6] concerns the target cynomolgus CD32a (cynomolgus) (UniProt Q8SPW4). The experiment in a line: SPR.
Assay [7] addresses human CD32b (human FcγRIIB) (human) (UniProt P31994). Briefly: SPR.
Assay [8] deals with cynomolgus CD64 (cynomolgus) (UniProt Q8SPW5). Briefly: SPR.
For assay [9], the target named is human CD16a (human FcγRIIIA), V isoform (human) (UniProt P08637). The experiment in a line: SPR.
Chain of human CD16a (human FcγRIIIA), V isoform (human) (P08637 17-208 F176V): as the sequence (P08637 17-208) above, with F160V counted along it
Assay [10] deals with cynomolgus CD16 (cynomolgus) (UniProt Q8SPW2). The experiment in a line: SPR.
Chain of cynomolgus CD16 (cynomolgus) (Q8SPW2 17-254): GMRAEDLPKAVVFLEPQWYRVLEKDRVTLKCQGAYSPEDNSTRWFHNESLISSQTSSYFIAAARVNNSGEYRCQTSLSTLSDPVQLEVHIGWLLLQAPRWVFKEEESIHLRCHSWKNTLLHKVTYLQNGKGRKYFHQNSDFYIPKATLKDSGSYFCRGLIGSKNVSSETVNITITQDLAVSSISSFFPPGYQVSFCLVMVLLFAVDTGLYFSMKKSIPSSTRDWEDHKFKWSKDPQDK
Assay [11] deals with cynomolgus CD123. The experiment in a line: SPR. To be noted: bispecific antibody.
The target in assay [12] is human CD64 (human FcγRI) (human) (UniProt P12314). The experiment in a line: SPR.
Chain of human CD64 (human FcγRI) (human) (P12314 16-374): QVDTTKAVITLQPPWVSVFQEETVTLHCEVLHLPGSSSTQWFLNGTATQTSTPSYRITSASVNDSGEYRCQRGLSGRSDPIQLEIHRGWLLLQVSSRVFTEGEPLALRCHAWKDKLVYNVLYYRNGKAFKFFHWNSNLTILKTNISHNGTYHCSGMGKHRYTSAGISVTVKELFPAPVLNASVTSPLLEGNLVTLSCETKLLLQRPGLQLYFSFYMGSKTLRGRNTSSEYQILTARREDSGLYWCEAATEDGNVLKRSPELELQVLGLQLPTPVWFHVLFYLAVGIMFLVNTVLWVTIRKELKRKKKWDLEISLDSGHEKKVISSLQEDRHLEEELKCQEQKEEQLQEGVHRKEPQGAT
For assay [13], the target named is human CD16b (human FcγRIIIB) (human) (UniProt O75015). The experiment in a line: SPR.
Chain of human CD16b (human FcγRIIIB) (human) (O75015 17-200): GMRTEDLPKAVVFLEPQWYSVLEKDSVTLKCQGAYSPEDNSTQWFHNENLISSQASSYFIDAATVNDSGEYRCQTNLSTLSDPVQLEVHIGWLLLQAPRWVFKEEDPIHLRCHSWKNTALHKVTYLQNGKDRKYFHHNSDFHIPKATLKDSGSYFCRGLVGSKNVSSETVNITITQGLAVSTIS
For assay [14], the target named is cynomolgus NKp46 (Gln17-Asn254) (cynomolgus) (UniProt Q95JB9). The experiment in a line: SPR. The settings on record: bispecific antibody.
Chain of cynomolgus NKp46 (Gln17-Asn254) (cynomolgus) (Q95JB9 17-254): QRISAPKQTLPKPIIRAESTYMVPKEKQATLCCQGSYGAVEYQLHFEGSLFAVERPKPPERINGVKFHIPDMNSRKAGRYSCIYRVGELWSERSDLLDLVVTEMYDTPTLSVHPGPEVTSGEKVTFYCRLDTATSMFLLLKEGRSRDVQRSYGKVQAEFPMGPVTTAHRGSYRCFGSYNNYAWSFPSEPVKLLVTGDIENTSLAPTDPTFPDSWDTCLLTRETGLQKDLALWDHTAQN
Assay [15] concerns the target recombinant human CD123 (Homo sapiens) (UniProt P26951). Briefly: SPR; Biacore T200, CM5 chip, 25 °C; CD123-NKCE (0.06 µg/ml) captured on anti-human Fc chip (human antibody capture kit); NKp46 or CD123 injected at 1.56 to 100 nM in HBS-EP+; 1:1 binding model with mass transport limitation; monovalent KD.
Assay [16] addresses human NKp46 (Gln22-Asn255) (Homo sapiens) (UniProt O76036). The description is as above.
For assay [17] the target is unchanged.
Target sequence in this assay (O76036 22-255): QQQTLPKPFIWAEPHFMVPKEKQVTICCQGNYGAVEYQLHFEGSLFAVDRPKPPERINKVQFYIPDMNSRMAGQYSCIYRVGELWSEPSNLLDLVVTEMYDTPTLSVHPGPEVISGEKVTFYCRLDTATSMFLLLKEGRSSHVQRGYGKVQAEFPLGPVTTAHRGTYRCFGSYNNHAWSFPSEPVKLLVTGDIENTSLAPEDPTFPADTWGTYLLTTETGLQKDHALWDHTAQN

Like-named read-outs stand apart in the source and are kept apart here.

Chain of cynomolgus FcRn (cynomolgus) (Q8SPV9 24-365): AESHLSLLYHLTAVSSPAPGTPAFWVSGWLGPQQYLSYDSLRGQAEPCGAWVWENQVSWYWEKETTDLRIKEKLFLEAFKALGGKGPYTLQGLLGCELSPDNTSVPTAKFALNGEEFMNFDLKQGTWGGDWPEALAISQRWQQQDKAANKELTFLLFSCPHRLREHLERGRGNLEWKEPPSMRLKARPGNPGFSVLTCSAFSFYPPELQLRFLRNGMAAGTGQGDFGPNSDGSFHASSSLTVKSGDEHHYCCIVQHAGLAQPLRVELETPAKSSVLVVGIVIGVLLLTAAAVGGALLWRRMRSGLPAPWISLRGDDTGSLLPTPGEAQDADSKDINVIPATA
Chain of human CD32a (human FcγRIIA) (human) (P12318 34-317): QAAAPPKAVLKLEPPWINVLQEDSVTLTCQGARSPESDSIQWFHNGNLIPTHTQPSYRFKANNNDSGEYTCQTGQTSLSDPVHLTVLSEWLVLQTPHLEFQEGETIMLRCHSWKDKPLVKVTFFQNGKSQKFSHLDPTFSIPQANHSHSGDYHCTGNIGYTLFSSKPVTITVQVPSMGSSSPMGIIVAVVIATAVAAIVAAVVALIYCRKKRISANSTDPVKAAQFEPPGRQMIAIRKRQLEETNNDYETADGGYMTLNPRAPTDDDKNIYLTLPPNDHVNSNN
Chain of human CD32b (human FcγRIIB) (human) (P31994 43-310): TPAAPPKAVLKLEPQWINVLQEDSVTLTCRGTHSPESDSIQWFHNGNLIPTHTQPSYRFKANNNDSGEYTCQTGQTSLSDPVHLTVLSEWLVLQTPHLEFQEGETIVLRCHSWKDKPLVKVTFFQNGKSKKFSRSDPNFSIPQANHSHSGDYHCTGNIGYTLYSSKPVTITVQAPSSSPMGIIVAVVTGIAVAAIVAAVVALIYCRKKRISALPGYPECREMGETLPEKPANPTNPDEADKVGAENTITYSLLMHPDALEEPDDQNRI
Chain of human neonatal Fc receptor (human) (P55899 24-365): as the sequence (Q8SPV9 24-365) above, with D39N, Q44E, S99G, G189S, N190S, M217L, T269S, S319V, S332L, I335V counted along it

As for “CD123-NKCE (trifunctional NKp46-CD16a-NK cell engager targeting CD123)”, the Kd (usually the concentration at which binding is half-saturated) in assay [1] (bispecific antibody) came out at 1890 nM; in [2] (bispecific antibody) it was 1220 nM; in assay [3] (bispecific antibody), 282 nM; in [4], 109 nM; in assay [5] (bispecific antibody), 2610 nM; in [6] (bispecific antibody), 5180 nM. The equilibrium dissociation constant (Kd) in assay [7] (bispecific antibody) is 3200 nM; in [8] (bispecific antibody), 12 nM; in assay [9] (bispecific antibody), 462 nM; in [10] (bispecific antibody), 466 nM; in [11], 1.23 nM; in assay [12] (bispecific antibody), 0.2 nM. In addition, the dissociation constant (Kd) came out at 6690 nM in [13] (bispecific antibody) and 29 nM in assay [14].
“CD123-NKCE (trifunctional NKp46-CD16a-NK cell engager targeting CD123) (bispecific antibody)”: the Kd in assay [15] stood at 0.4 nM; in [16] it was 16.6 nM. For the same substance, the NK cell-mediated cytotoxicity (Cr-51 release) against MOLM-13 cells with NK cells from healthy donors, geometric mean EC50; NKp46 and CD16a coengaged in assay [17] came to 0.0042 nM. The substance further registered an NK cell-mediated cytotoxicity (Cr-51 release) against MOLM-13 cells with NK cells from healthy donors, mean observed maximum specific lysis; NKp46 and CD16a coengaged in assay [17] of 71%.
For the substance Human IgG1 control, the equilibrium dissociation constant (Kd) in assay [1] stood at 2320 nM; in assay [2] it was 1570 nM; in [3], 237 nM; in assay [5], 2820 nM; in [6], 6340 nM; in [7] it was 4230 nM. Besides, the Kd in [8] is 18 nM; in [9], 575 nM; in [10] it was 580 nM; in assay [12], 0.2 nM; in [13] it was 7540 nM.
